How the values were obtained:
PARP = PARP cleavage by immunoblot after γ-radiation; assay type: cell-based, human; conditions: DN/CL6 cells
Protocol: Western blotting: Following exposure to γ-radiation (1-20 Gy) (a ^137Cs J. L. Shepherrd Mark 1 laboratory irradiator) or TNF-α (10 ng/ml) treatment, cell extracts were prepared by using lysis buffer (50 mM Tris-Cl, pH 7.5, 100 mM NaCl, 0.1% NP40, 1 mM PMSF, 10 mg/ml leupeptin, 1 mg/ml aprotinin, 1 mg/ml perpstatin), followed by centrifugation at 12,000×g for 20 minutes. Protein quantities were determined using the BCA protein assay kit (Pierce). Equal amounts of cell extracts were analyzed on 10% SDS-polyacrylamide gels. The transblotted membranes were blocked in PBS containing 5% dry milk for 1 h and probed with specific antibodies, followed by washing with PBST. The membrane was then incubated with horse-radish peroxidase conjugated secondary antibodies for 30-60 minutes washed with PBST, and developed by using the ECL-chemiluminescence detection system (Amersham). Equal loading and transfer of proteins among lanes were confirmed by immunoblot analysis with antibodies to β-actin (Amersham) or by staining the membrane with Ponceau S. Other antibodies used in this study include anti-NF-κB(p65), IκB-α caspases-3, (Santa Cruz Biotechnology, Santa Cruz, Calif.) and PARP (Enzyme Synthesis, Dublin, Calif.). […]

caspase-3 = target: T1, caspase-3 (Homo sapiens, UniProt P42574); test: Caspase-3 activity, fluorogenic substrate assay after IR; assay type: cell-based; conditions: DN/CL6 cells, IR 5 Gy
T1 construct: endogenous in cells; host or cells: lysates of SCC-35 and DN/CL6 cells after 5 Gy of IR
T1 sequence (P42574 29-175 limits assumed): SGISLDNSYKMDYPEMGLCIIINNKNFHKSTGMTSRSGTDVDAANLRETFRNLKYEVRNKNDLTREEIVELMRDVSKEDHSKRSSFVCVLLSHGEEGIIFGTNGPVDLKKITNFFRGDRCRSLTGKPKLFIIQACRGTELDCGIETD
Protocol: Measurement of caspase activities—The activity of caspases-3 was assayed fluorometrically with specific fluorogenic substrates: MOCAc-Asp-Glu-Val-Asp-Ala-Pro-Lys(DNP)-NH2 (Peptide Institute, Osaka, Japan) (34). Cell extracts (60 μg of protein) were incubated for 1 h at 37° C. with 600 nM substrate in a reaction mixture (500 μl) containing 10 mM Hepes-NaOH (pH 7.4), 40 mM P-glycerophosphate, 50 mM NaCl, 2 mM MgCl2, 5 mM EGTA, 1 mM DTT, 2 mM ATP, 10 mM creatine phosphate, and creatine kinase (50 μg/ml). The fluorescence of the cleaved substrates was measured with a Hitachi F-4500 spectrophotometer at excitation and emission wavelengths, respectively, of 328 and 393 nm for MOCAc-DEVDAPK(DNP)-NH2.
The nuclear enzyme poly(ADP-ribose) polymerase (PARP), which plays an important role in the repair of DNA damage and in maintenance of genomic integrity (38, 39), is specifically cleaved between its NH2-terminal DNA-binding domain and its multifunctional COOH-terminal domain by caspase-3 or a caspase-3—like protease early during the execution phase of apoptosis (40). We therefore examined the effects of p65DN on both the cleavage of PARP and caspase-3 activity. […] Exposure to 5 Gy of γ-radiation induced a substantial increase in PARP cleavage within 48 h in DN/CL6 cells, whereas cleavage of this enzyme remained barely detectable at 72 h in SCC-35 cells (FIG. 4C).

IκB-α = test: Immunoblot analysis of IR-induced IκB-α Ser32 phosphorylation/degradation and nuclear p65; assay type: cell-based, human; conditions: DN/CL6 cells
Protocol: Western blotting: Following exposure to γ-radiation (1-20 Gy) (a ^137Cs J. L. Shepherrd Mark 1 laboratory irradiator) or TNF-α (10 ng/ml) treatment, cell extracts were prepared by using lysis buffer (50 mM Tris-Cl, pH 7.5, 100 mM NaCl, 0.1% NP40, 1 mM PMSF, 10 mg/ml leupeptin, 1 mg/ml aprotinin, 1 mg/ml perpstatin), followed by centrifugation at 12,000×g for 20 minutes. Protein quantities were determined using the BCA protein assay kit (Pierce). Equal amounts of cell extracts were analyzed on 10% SDS-polyacrylamide gels. The transblotted membranes were blocked in PBS containing 5% dry milk for 1 h and probed with specific antibodies, followed by washing with PBST. The membrane was then incubated with horse-radish peroxidase conjugated secondary antibodies for 30-60 minutes washed with PBST, and developed by using the ECL-chemiluminescence detection system (Amersham). Equal loading and transfer of proteins among lanes were confirmed by immunoblot analysis with antibodies to β-actin (Amersham) or by staining the membrane with Ponceau S. Other antibodies used in this study include anti-NF-κB(p65), IκB-α caspases-3, (Santa Cruz Biotechnology, Santa Cruz, Calif.) and PARP (Enzyme Synthesis, Dublin, Calif.).
IκB-α binds to both subunits of the p50-p65 heterodimer. We therefore next determined the effect of p65DN expression on IR-induced phosphorylation and subsequent degradation of IκB-αin the cytoplasm. […] This conclusion is consistent with the previous observation that amino acids 1 to 101 of p65 are required for its binding to IκB-α (36). We therefore propose that p65DN interferes with the inhibitory function of IκB-α by binding to this protein in both the cytoplasm and nucleus.

SCC-35 cells [1] = test: Radiation (clonogenic) survival assay; assay type: cell-based, human; conditions: DN/CL6 cells
Protocol: Radiation survival assay: Clonogenic dose response was determined as previously described (32). Briefly, exponentially growing cells were plated in T-25 flasks and exposed to graded doses of ionizing radiation in a ^137Cs J. L. Shepherrd Mark 1 laboratory irradiator with a dose accuracy of ±5%. Physics support for calibration and quality assurance was provided for all experimental protocols. Colony counts were fit to single hit multitarget (SHMT) and the linear quadratic (L-Q) models (33). Data points were obtained from two to three independent experiments in triplicates for each experiment.
Impaired regulation of NF-κB in certain cell types is associated with intrinsic cellular radiosensitivity (14-16). To examine the role of NF-κB in determining cell sensitivity to radiation, we performed clonogenic survival assays after exposure of SCC-35 and DN/CL6 cells to graded doses of γ-radiation (FIG. 3). The sensitivity of DN/CL6 cells to IR was greater than that of the parental SCC-35 cells. According to the single-hit multitarget model (33), D0 values were determined to be 1.9 Gy (with α=0.16 and β=0.02) for SCC-35 cells and 1.2 Gy (with α=0.11 and β=0.06) for DN/CL6 cells. Because of the potential pitfalls of clonal heterogeneity associated with determination of radiation sensitivity in a clonal cell population, we also performed survival experiments with pooled transfected clones.

NF-κB = NF-κB luciferase reporter assay (pNF-κB-Luc); assay type: cell-based, human; conditions: DN/CL6 vs SCC-35 cells; IR 20 Gy or TNF-α 10 ng/ml, 6 h
Protocol: Luciferase Reporter Assay: Cells were transiently transfected for 16 h with 5 μg/ml of plasmid DNA by using Lipofectin (Gibco-BRL). Following treatment with ionizing radiation (20 Gy) or TNF-α (10 ng/ml), cells were lysed at 6 h in Reporter Lysis Buffer (Promega), and centrifuged for 2 min at 14,000×g.
To determine whether p65DN inhibits the activation of NF-κB, we transfected DN/CL6 cells with the NF-κB-specific luciferase reporter vector pNF-κB-Luc and then examined the effect of IR or TNF-α on luciferase activity. The stimulatory effects of these agents on NF-κB activity were reduced by a factor of 2 to 3 in DN/CL6 cells compared with those apparent in SCC-35 cells (FIG. 2B). Expression of p65DN thus inhibited NF-κB activation.

endogenous p65 protein = test: Immunoblot analysis of endogenous p65 protein in DN/CL6 cells; assay type: cell-based, human; conditions: DN/CL6 cells (SCC-35 clone expressing p65DN)
Protocol: (§1) Cell culture, Transfection and Clonal Selections: Human head and neck squamous carcinoma cells (SCC-35) were used for the experiments described. These cells have been previously characterized as resistant to ionizing radiation based on clinical and radiobiological parameters (30). Cells were cultured in 10 cm^2 dishes and maintained in Dulbeco modified Eagle's medium supplemented with 10% fetal bovine serum, 2 mML-amino acids. Cells were passaged routinely at 80-90% confluence and checked for mycoplasma contamination at three-month intervals. […] G418 resistant clonal cells were then subcloned and maintained in the complete medium containing G418 (400 μg/ml) as described above. Drug resistant colonies were pooled or subcloned for future studies.
Western blotting: Following exposure to γ-radiation (1-20 Gy) (a ^137Cs J. L. Shepherrd Mark 1 laboratory irradiator) or TNF-α (10 ng/ml) treatment, cell extracts were prepared by using lysis buffer (50 mM Tris-Cl, pH 7.5, 100 mM NaCl, 0.1% NP40, 1 mM PMSF, 10 mg/ml leupeptin, 1 mg/ml aprotinin, 1 mg/ml perpstatin), followed by centrifugation at 12,000×g for 20 minutes. Protein quantities were determined using the BCA protein assay kit (Pierce). Equal amounts of cell extracts were analyzed on 10% SDS-polyacrylamide gels. […]

endogenous p65 mRNA = test: Northern blot analysis of endogenous p65 mRNA in clonal cells expressing p65DN; assay type: cell-based, human; conditions: cell clones expressing p65DN
Protocol: as §1
RNA was electrophoresed on a 1% formaldehyde-agarose gel and then transferred to the nitrocellulose membrane, followed by UV cross-linking. The membrane was hybridized with γ-^32P-dATP labeled cDNA probes for 16 h, washed, and autoradiographed.
To investigate the effects of targeting p65 as a means of disrupting NF-κB activation, we transfected radioresistant human squamous carcinoma SCC-35 cells with an expression vector encoding amino acids 1 to 84 of human p65 (p65DN). The resulting G418-resistant colonies were isolated and analyzed for expression of p65DN and endogenous p65. […]

SCC-35 cells [2] = test: Apoptotic index after γ-radiation; assay type: cell-based, human; conditions: DN/CL6 cells
Source text: Apoptotic Index: Adherent and floating cells were collected at various times after exposure to various doses (1-20 Gy) of gamma radiation (a ^137Cs J. L. Shepherd Mark 1laboratory irradiator) and stained with acridine-orange and ethidium bromide (14). About 600 cells (˜100 cells per field) were scored for the aberrant chromosome organizations under flourescence microscopy. The apoptotic cells=(total number of cells with apoptotic nuclei/total number of cells counted)×100. All values represent the mean±SE of the experiments. All experiments were performed more than three times.
Activation of NF-κB contributes to the protection of many cell types from apoptotic cell death induced by DNA-damaging agents. However, under certain conditions and in certain cell types, activation of NF-κB induces apoptosis (37). Given that clonogenic survival analysis provides a measure of all types of cell death, we next determined the effect of p65DN expression on IR-induced apoptosis. IR induced a dose-dependent increase in the percentage of both SCC-35 and DN/CL6 cells characterized as apoptotic 48 h after irradiation (FIG. 4A). However, whereas the maximum proportion of apoptotic cells was 8% (evident at 20 Gy) for SCC-35 cells, confirming that apoptosis is not a major pathway of cell death in these cells, the maximum apoptotic index was 14% for DN/CL6 cells. The baseline apoptotic index for both cell lines was <1%.

B1: p65DN: dominant negative fragment, amino acids 1 to 84 of human p65 (RelA), expressed from vector pCR3.1 in SCC-35 cells (clone DN/CL6) (protein)
chain: MDELFPLIFPAEPAQASGPYVEIIEQPKQRGMRFRYKCEGRSAGSIPGERSTDTTKTHPTIKINGYTGPGTVRISLVTKDPPHR
Q: With B1 as the molecule, how does the “time to substantial increase in PARP cleavage” value (PARP; 5 Gy γ-radiation) read?
A: ≤ 48 h

Q: What about the “γ-radiation dose resulting in PARP cleavage” value (PARP; data not shown) of the same molecule?
A: ≤ 2 Gy

Q: And the “IR-induced activation of caspase-3 compared with SCC-35 cells” value (caspase-3)?
A: earlier and more pronounced activation

Q: And the “amount of p65 in the nucleus after irradiation” value (IκB-α; IR)?
A: decrease

Q: And the “IR-induced phosphorylation of IκB-α on Ser32” value (IκB-α; at 3 h after irradiation)?
A: remained markedly increased

Q: What about the “time after irradiation without detectable degradation of IκB-α” value (IκB-α; parental cells degraded within 1 h) of the same molecule?
A: up to 3 h

Q: What about the α (SCC-35 cells [1]; clonogenic survival fit) of the same molecule?
A: 0.11

Q: And the β (SCC-35 cells [1]; clonogenic survival fit)?
A: 0.06

Q: What about the D0 (SCC-35 cells [1]; single-hit multitarget model, graded γ-radiation doses) of the same molecule?
A: 1.2 Gy

Q: What about the “factor of reduction of stimulatory effects of IR or TNF-α on NF-κB (luciferase) activity” value (NF-κB) of the same molecule?
A: 2 to 3

Q: What about the “reduction of the amount of endogenous p65 protein compared with parental SCC-35 cells” value (endogenous p65 protein) of the same molecule?
A: 75%

Q: And the “amount of endogenous p65 mRNA compared with parental SCC-35 cells” value (endogenous p65 mRNA)?
A: reduced

Q: And the “time at which substantial increase in apoptotic index was apparent” value (SCC-35 cells [2]; 5 Gy γ-radiation)?
A: 24 h

Q: What about the maximum apoptotic index (SCC-35 cells [2]; 48 h after irradiation, 2-20 Gy) of the same molecule?
A: 14%

Q: And the baseline apoptotic index (SCC-35 cells [2]; no irradiation)?
A: < 1%
